Test system: 19-mer (SEQ ID NO:11) cleavage domain peptide

Active MMP-9 enzyme, sequence (chain, as listed by the source): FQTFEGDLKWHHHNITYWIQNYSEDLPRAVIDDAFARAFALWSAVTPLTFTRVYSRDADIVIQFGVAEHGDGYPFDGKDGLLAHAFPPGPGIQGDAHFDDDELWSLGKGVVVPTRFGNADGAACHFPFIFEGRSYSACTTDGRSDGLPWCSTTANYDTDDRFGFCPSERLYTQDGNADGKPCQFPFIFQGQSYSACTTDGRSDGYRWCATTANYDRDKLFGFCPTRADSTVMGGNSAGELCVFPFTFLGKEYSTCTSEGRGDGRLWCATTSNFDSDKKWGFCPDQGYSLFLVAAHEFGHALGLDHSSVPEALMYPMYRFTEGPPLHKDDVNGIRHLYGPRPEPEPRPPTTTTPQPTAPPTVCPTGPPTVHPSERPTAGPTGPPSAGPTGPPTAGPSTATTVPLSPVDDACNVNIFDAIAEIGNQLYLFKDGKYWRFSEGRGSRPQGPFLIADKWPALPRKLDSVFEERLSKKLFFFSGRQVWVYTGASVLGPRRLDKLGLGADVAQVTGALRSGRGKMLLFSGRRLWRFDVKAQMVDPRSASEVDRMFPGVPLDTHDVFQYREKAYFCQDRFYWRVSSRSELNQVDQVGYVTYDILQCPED

In the case of Active MMP-9 enzyme, the “extended time course of MMP-9 catalyzed hydrolysis of collagen” value is reported as “the 19-mer (SEQ ID NO:11) effectively inhibits the MMP-9 catalyzed hydrolysis of collagen to beyond 1000 minutes”.
